Source: article PMC5359885

Tests used:
[1] = target: F-actin (G-actin from Cytoskeleton polymerized to F-actin) (UniProt P68135); test: co-sedimentation; Actin Binding Protein Spin-Down Assay kit; F-actin (7 μM) incubated with His-tagged protein (SURFIN4.2^WRD2-His 12.5 to 0.0 μM; His control 7.0 μM; Pf332^WRD 4.2 μM) at room temperature 30 min; 150,000×g 1.5 h at 24 °C; Western blot of supernatant and pellet, densitometry, one-site specific binding model
[2] = target: purified human spectrin (Sigma) (human) (UniProt P02549); test: ELISA; spectrin coated on the plate; serially diluted His-tagged protein in PBS, overnight at 4 °C; detected with anti-His tag antibody; Scatchard analysis
Spectrin (Homo sapiens) = Spectrin (Homo sapiens) (UniProt P02549); conditions: cited from earlier work

UniProt P02549, sequence (P02549 whole entry, chain 1 of 2): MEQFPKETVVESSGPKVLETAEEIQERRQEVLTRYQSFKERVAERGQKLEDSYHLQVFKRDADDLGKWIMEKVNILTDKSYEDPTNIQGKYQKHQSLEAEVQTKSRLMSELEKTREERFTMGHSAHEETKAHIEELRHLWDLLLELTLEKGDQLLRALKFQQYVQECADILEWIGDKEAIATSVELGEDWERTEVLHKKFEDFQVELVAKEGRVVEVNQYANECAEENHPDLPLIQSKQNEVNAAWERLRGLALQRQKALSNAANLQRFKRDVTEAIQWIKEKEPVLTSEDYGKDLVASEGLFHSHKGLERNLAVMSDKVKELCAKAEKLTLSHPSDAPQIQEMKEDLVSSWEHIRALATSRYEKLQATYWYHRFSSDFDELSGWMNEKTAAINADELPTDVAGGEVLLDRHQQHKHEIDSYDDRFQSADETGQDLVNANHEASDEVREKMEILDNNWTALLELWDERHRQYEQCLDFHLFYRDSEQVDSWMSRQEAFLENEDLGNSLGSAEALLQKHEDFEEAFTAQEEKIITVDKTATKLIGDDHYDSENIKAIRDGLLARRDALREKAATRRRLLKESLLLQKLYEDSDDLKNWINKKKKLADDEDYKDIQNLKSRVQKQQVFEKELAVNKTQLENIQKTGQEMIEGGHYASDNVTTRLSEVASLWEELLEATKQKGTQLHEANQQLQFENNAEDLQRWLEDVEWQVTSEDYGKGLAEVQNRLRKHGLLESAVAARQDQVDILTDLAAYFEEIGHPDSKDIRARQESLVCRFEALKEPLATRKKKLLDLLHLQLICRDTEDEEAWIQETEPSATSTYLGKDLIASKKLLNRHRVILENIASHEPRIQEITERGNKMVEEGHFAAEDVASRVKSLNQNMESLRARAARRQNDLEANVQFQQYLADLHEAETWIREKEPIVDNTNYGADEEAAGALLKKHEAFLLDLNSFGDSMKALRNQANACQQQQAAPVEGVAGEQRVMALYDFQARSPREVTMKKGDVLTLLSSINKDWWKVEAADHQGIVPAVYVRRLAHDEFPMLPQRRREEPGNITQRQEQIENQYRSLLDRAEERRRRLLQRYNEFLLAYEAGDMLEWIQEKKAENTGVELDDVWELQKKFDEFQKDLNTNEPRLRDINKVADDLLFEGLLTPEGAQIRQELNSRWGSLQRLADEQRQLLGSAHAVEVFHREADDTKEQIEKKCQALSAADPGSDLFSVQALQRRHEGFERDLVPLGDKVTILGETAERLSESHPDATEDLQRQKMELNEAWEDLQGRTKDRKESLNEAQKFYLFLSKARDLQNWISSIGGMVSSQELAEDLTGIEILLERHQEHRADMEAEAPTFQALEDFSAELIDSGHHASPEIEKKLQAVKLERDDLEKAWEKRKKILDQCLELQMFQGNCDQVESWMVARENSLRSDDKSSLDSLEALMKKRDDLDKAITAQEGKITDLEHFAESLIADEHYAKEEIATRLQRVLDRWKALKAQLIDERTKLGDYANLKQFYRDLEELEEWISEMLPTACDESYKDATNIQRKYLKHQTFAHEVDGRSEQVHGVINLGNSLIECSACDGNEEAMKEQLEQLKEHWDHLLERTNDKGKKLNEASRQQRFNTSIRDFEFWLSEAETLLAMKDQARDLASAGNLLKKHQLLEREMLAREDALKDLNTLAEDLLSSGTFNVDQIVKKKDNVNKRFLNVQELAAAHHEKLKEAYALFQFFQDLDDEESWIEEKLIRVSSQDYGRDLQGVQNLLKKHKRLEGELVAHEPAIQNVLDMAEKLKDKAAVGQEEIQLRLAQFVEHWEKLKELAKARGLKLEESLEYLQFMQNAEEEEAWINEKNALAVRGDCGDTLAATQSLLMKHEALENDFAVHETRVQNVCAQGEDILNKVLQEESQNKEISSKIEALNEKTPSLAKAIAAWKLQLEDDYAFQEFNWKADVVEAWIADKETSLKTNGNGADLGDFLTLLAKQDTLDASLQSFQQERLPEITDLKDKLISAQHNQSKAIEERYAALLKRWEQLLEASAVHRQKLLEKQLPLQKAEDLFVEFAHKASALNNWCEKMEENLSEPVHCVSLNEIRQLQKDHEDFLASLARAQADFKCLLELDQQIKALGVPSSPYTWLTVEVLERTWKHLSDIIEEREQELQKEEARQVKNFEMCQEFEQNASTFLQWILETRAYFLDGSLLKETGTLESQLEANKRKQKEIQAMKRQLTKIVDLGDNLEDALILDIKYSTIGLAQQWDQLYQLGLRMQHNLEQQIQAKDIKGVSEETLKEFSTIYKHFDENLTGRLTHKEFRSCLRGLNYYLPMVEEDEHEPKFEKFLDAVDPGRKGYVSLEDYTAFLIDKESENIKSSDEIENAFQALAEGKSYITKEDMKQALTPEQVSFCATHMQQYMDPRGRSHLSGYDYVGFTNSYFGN
UniProt P02549, sequence (P11277 2-2137, chain 2 of 2, further chain): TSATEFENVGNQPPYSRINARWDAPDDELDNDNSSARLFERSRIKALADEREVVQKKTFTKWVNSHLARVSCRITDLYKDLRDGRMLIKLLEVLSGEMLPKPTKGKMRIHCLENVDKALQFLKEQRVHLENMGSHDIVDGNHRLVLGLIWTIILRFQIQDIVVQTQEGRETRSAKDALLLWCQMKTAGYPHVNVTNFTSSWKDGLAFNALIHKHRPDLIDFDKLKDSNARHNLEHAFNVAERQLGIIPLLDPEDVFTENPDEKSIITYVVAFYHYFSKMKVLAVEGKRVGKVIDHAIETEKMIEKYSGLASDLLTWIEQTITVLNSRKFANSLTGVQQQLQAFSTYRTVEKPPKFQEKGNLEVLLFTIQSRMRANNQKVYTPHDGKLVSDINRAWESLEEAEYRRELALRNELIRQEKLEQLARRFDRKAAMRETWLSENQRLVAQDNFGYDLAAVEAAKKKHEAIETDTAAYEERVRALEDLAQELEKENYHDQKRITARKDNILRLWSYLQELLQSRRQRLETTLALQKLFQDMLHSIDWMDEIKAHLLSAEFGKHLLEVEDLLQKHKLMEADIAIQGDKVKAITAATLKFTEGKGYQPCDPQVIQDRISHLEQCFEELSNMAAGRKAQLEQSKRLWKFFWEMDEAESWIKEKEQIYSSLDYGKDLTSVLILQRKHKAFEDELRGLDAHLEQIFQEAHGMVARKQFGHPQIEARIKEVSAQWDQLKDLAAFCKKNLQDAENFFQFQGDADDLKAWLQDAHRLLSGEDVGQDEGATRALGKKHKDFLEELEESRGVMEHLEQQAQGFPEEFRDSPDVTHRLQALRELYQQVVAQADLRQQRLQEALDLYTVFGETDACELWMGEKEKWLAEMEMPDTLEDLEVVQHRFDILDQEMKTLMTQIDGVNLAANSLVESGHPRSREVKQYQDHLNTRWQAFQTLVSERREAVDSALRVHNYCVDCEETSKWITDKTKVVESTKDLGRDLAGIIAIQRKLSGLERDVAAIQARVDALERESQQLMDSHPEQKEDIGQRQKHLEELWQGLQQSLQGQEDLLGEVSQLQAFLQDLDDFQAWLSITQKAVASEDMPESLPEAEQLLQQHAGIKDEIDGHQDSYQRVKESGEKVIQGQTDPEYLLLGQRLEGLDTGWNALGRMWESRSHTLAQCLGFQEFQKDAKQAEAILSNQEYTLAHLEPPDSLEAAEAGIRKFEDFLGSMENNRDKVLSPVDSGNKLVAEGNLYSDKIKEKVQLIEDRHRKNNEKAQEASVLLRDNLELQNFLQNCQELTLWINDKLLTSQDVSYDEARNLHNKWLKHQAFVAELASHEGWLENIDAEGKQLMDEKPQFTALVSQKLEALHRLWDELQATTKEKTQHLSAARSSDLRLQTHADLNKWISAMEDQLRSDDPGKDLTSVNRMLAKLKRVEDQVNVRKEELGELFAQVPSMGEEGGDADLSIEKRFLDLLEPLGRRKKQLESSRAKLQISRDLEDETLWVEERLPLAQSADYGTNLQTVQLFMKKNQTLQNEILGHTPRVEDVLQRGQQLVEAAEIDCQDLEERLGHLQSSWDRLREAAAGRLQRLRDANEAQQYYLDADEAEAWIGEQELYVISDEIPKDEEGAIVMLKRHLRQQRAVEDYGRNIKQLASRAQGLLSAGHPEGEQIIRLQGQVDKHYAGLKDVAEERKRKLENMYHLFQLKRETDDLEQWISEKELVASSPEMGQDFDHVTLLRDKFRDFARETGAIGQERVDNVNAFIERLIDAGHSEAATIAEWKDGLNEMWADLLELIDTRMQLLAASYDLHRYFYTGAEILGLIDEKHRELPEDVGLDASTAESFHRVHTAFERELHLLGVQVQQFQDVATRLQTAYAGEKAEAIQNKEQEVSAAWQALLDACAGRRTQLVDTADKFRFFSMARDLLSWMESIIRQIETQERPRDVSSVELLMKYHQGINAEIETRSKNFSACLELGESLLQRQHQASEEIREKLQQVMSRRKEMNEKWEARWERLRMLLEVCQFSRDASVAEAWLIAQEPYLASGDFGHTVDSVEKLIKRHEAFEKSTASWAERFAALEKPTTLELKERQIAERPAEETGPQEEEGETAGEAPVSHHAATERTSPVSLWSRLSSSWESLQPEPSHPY

Q: Which results are given for “His-tagged recombinant SURFIN4.2 WRD2 (second tryptophan-rich domain of SURFIN4.2, amino acids 1349-1567), expressed in E. coli (domain or fragment)”?
A: Kd [1]: 5160 nM; Kd [2]: 510 nM

Q: For RESA (from UniProt P13830), which Kd (Spectrin (Homo sapiens)) is on record?
A: 880 nM
